According to US20170188835:

Target: iTEV(+) 3.0, infrared fluorescent Tobacco Etch Virus (TEV) protease sensor

B1: Tobacco Etch Virus (TEV) protease (protein)
chain: GESLFKGPRDYNPISSTICHLTNESDGHTTSLYGIGFGPFIITNKHLFRRNNGTLLVQSLHGVFKVKNTTTLQQHLIDGRDMIIIRMPKDFPPFPQKLKFREPQREERICLVTTNFQTKSMSSMVSDTSCTFPSSDGIFWKHWIQTKDGQCGSPLVSTRDGFIVGIHSASNFTNTNNYFTSVPKNFMELLTNQEAQQWVSGWRLNADSVLWGGHKVFMSKPEEPFQPVKEATQLMNELVYSQ
gel electrophoresis with Coomassie blue staining (cleavage of the sensor): Two bands revealed by Coomassie blue staining correspond to N and C half of the sensor with the expected molecular weight
